Experiment [1] deals with T1, hen egg lysozyme (HEL), biotinylated (Gallus gallus (hen egg white), UniProt P00698, biotin).
T1 construct: hen egg lysozyme, bought as HEL–biotin; In deep screening it was pre-complexed 1:1 with AF532-labelled streptavidin; in BLI it was loaded on a streptavidin tip; source: bought: GeneTex (GTX82960-pro)
In words: BLI; HEL–biotin (25 µg ml^−1, 400 s) loaded on SA tip; nanobody from periplasmic extract at 50 nM in SuperBlock PBS; association 400 or 500 s, dissociation 600 s; referenced to a non-loaded SA tip; one concentration, 1:1 fit; Octet Red384. The note with it: one partner purified. A general note: In BLI a coated tip is dipped into the sample, and binding shifts an interference pattern.

Experiment [2] addresses T2, human epidermal growth factor receptor 2 (HER2), biotinylated (Homo sapiens, UniProt P04626, biotin).
T2 construct: biotinylated human HER2, bought; also called ERBB2; source: bought: Acro Biosystems (HE2-H822R)
The experiment can be described thus: BLI; human HER2–biotin (5 µg ml^−1, 30 s) loaded on SA tip; purified Fab at 20 nM; DPBS with 0.1% BSA and 0.02% Tween 20; association 300 s, dissociation 600 s; one concentration, 1:1 fit. To be noted: both partners purified.

These results are taken from PMC10963267, “Rapid discovery of high-affinity antibodies via massively parallel sequencing, ribosome display and affinity screening” (Nature Biomedical Engineering, 2023).

T1 sequence (P00698 19-147): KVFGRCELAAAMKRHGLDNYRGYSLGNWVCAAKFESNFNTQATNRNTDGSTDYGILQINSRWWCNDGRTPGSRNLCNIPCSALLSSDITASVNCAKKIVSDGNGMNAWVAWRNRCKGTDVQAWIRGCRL

B1: anti-HEL nanobody M15 (VHH)
VHH: QVQLQESGGGLVQAGGSLRLSCAASGTISSQKLMGWYRQAPGKEREFVAAINDGATTNYADSVKGRFTISRDNAKNTVYLQMNSLKPEDTAVYYCAAYYDVRGYYWGTFGYWGQGTQVTVSS
notes: synthetic nanobody from the yeast surface display library; also called VHH-M15; source: E. coli, periplasmic extract (vector pSBinit)
For B1, the affinity in experiment [1], expressed as Kd, was 9.81 nM. This lies in the single-digit nanomolar range.

B2: anti-HEL nanobody M5 (VHH)
VHH: QVQLQESGGGLVQAGGSLRLSCAASGSIFYYTDMGWYRQAPGKEREFVASIGYGGITYYADSVKGRFTISRDNAKNTVYLQMNSLKPEDTAVYYCAVQRSFESYGYWGHVYWGQGTQVTVSS
notes: synthetic nanobody from the yeast surface display library; also called VHH-M5; source: E. coli, periplasmic extract (vector pSBinit)
In the case of B2, binding in experiment [1] was put at a Kd of 19 nM.

B3: anti-HEL nanobody M6 (VHH)
VHH: QVQLQESGGGLVQAGGSLRLSCAASGSISRDPDMGWYRQAPGKEREFVASISGGTTTYYADSVKGRFTISRDNAKNTVYLQMNSLKPEDTAVYYCAVQRSFESYGYWGHVYWGQGTQVTVSS
notes: synthetic nanobody from the yeast surface display library; also called VHH-M6; source: E. coli, periplasmic extract (vector pSBinit)
As to B3, the dissociation constant (Kd) (usually a measure of binding affinity in units of concentration) in experiment [1] was found to be 14.2 nM.

B4: anti-HEL nanobody C2 (VHH)
VHH: QVQLQESGGGLVQAGGSLRLSCAASGNISADASMGWYRQAPGKEREFVAAIARGATTYYADSVKGRFTISRDNAKNTVYLQMNSLKPEDTAVYYCAVDQYDVTKRYIGHIYWGQGTQVTVSS
notes: synthetic nanobody from the yeast surface display library, picked as a random colony after R3 MACS; Framework is that of the library; source: E. coli, periplasmic extract (vector pSBinit)
For B4, the binding result in experiment [1] is listed as “binds”.

B5: anti-HER2 Fab HER20003 (Fab, V domains shown)
VH: QVQLVQSGAEVKKPGESLKISCKGSGYSFTSYWIAWVRQMPGKGLEYMGLIYPGDSDTKYSPSFQGQVTISVDKSVSTAYLQWSSLKPSDSAVYFCARHDVAYCSSSRCLTWPEYFQHWGQGTLVTVSS
VL: QSVLTQPPSVSAAPGQKVTISCSGSSSNIGNNYVSWYQQLPGTAPKLLIYGHTNRPAGVPDRFSGSKSGTSASLAISGFRSEDEADYYCASWDYTLSGWVFGGGTKLTVL
notes: as the heavy chain of m31 (G98A) with another CDR H3; as the light chain of m31; source: CHO cells, transiently transfected, purified (CaptureSelect CH1-XL)
As for B5, the affinity in experiment [2], expressed as Kd, was 2.8 nM. That is a single-digit nanomolar value.

B6: anti-HER2 Fab HER20004 (Fab, V domains shown)
VH: QVQLVQSGAEVKKPGESLKISCKGSGYSFTSYWIAWVRQMPGKGLEYMGLIYPGDSDTKYSPSFQGQVTISVDKSVSTAYLQWSSLKPSDSAVYFCARHDVGQCDSSNCAKWPEYFQHWGQGTLVTVSS
VL: QSVLTQPPSVSAAPGQKVTISCSGSSSNIGNNYVSWYQQLPGTAPKLLIYGHTNRPAGVPDRFSGSKSGTSASLAISGFRSEDEADYYCASWDYTLSGWVFGGGTKLTVL
notes: as for B5
In turn, B6 had a dissociation constant (Kd) in experiment [2] of 3.4 nM.

B7: anti-HER2 Fab HER20025 (Fab, V domains shown)
VH: QVQLVQSGAEVKKPGESLKISCKGSGYSFTSYWIAWVRQMPGKGLEYMGLIYPGDSDTKYSPSFQGQVTISVDKSVSTAYLQWSSLKPSDSAVYFCARHDVGYCDTPTCNKWPEYFQHWGQGTLVTVSS
VL: QSVLTQPPSVSAAPGQKVTISCSGSSSNIGNNYVSWYQQLPGTAPKLLIYGHTNRPAGVPDRFSGSKSGTSASLAISGFRSEDEADYYCASWDYTLSGWVFGGGTKLTVL
notes: as the heavy chain of m31 (G98A) with another CDR H3; as the light chain of m31; From the random set (random/mut); source: CHO cells, transiently transfected, purified (CaptureSelect CH1-XL)
In the case of B7, the Kd in experiment [2] came out at 0.283 nM.

B8: anti-HER2 Fab HER20011 (Fab, V domains shown)
VH: QVQLVQSGAEVKKPGESLKISCKGSGYSFTSYWIAWVRQMPGKGLEYMGLIYPGDSDTKYSPSFQGQVTISVDKSVSTAYLQWSSLKPSDSAVYFCARHDVGLCSSSNCAKWPEYFQHWGQGTLVTVSS
VL: QSVLTQPPSVSAAPGQKVTISCSGSSSNIGNNYVSWYQQLPGTAPKLLIYGHTNRPAGVPDRFSGSKSGTSASLAISGFRSEDEADYYCASWDYTLSGWVFGGGTKLTVL
notes: as the heavy chain of m31 (G98A) with another CDR H3; as the light chain of m31; From the HER2affmat library; source: CHO cells, transiently transfected, purified (CaptureSelect CH1-XL)
As to B8, the binding result in experiment [2] was “binds”.

B9: anti-HER2 Fab HER20009 (Fab, V domains shown)
VH: QVQLVQSGAEVKKPGESLKISCKGSGYSFTSYWIAWVRQMPGKGLEYMGLIYPGDSDTKYSPSFQGQVTISVDKSVSTAYLQWSSLKPSDSAVYFCARHDVAYCSSSRCLEWPEYFQHWGQGTLVTVSS
VL: QSVLTQPPSVSAAPGQKVTISCSGSSSNIGNNYVSWYQQLPGTAPKLLIYGHTNRPAGVPDRFSGSKSGTSASLAISGFRSEDEADYYCASWDYTLSGWVFGGGTKLTVL
notes: as for B8
For B9, the “fold improvement in affinity over G98A” value in experiment [2] is around 300 fold.

B10: anti-HER2 Fab HER20008 (Fab, V domains shown)
VH: QVQLVQSGAEVKKPGESLKISCKGSGYSFTSYWIAWVRQMPGKGLEYMGLIYPGDSDTKYSPSFQGQVTISVDKSVSTAYLQWSSLKPSDSAVYFCARHDVAYCDSDRCAKWPEYFQHWGQGTLVTVSS
VL: QSVLTQPPSVSAAPGQKVTISCSGSSSNIGNNYVSWYQQLPGTAPKLLIYGHTNRPAGVPDRFSGSKSGTSASLAISGFRSEDEADYYCASWDYTLSGWVFGGGTKLTVL
notes: as for B8
Consider B10, for which the binding result in experiment [2] is reported as “binds”.

B11: anti-HER2 Fab HER20010 (Fab, V domains shown)
VH: QVQLVQSGAEVKKPGESLKISCKGSGYSFTSYWIAWVRQMPGKGLEYMGLIYPGDSDTKYSPSFQGQVTISVDKSVSTAYLQWSSLKPSDSAVYFCARHDVAYCSSSRCLDWPEYFQHWGQGTLVTVSS
VL: QSVLTQPPSVSAAPGQKVTISCSGSSSNIGNNYVSWYQQLPGTAPKLLIYGHTNRPAGVPDRFSGSKSGTSASLAISGFRSEDEADYYCASWDYTLSGWVFGGGTKLTVL
notes: as for B8
Turning to B11, the “fold improvement in affinity over G98A” value in experiment [2] was around 300 fold.

B12: anti-HER2 Fab HER20007 (Fab, V domains shown)
VH: QVQLVQSGAEVKKPGESLKISCKGSGYSFTSYWIAWVRQMPGKGLEYMGLIYPGDSDTKYSPSFQGQVTISVDKSVSTAYLQWSSLKPSDSAVYFCARHDVGYCMSSNCAKWPEYFQHWGQGTLVTVSS
VL: QSVLTQPPSVSAAPGQKVTISCSGSSSNIGNNYVSWYQQLPGTAPKLLIYGHTNRPAGVPDRFSGSKSGTSASLAISGFRSEDEADYYCASWDYTLSGWVFGGGTKLTVL
notes: as for B8
Take B12: the binding result in experiment [2] was “binds”.

B13: anti-HER2 Fab HER20006 (Fab, V domains shown)
VH: QVQLVQSGAEVKKPGESLKISCKGSGYSFTSYWIAWVRQMPGKGLEYMGLIYPGDSDTKYSPSFQGQVTISVDKSVSTAYLQWSSLKPSDSAVYFCARHDVGWCTSSNCAKWPEYFQHWGQGTLVTVSS
VL: QSVLTQPPSVSAAPGQKVTISCSGSSSNIGNNYVSWYQQLPGTAPKLLIYGHTNRPAGVPDRFSGSKSGTSASLAISGFRSEDEADYYCASWDYTLSGWVFGGGTKLTVL
notes: as for B8
On to B13, for which the “fold improvement in affinity over G98A” value in experiment [2] is around 300 fold.

B14: anti-HER2 Fab HER20015 (Fab, V domains shown)
VH: QVQLVQSGAEVKKPGESLKISCKGSGYSFTSYWIAWVRQMPGKGLEYMGLIYPGDSDTKYSPSFQGQVTISVDKSVSTAYLQWSSLKPSDSAVYFCARHDVGYCDTPTCDKWPEYFQHWGQGTLVTVSS
VL: QSVLTQPPSVSAAPGQKVTISCSGSSSNIGNNYVSWYQQLPGTAPKLLIYGHTNRPAGVPDRFSGSKSGTSASLAISGFRSEDEADYYCASWDYTLSGWVFGGGTKLTVL
notes: as the heavy chain of m31 (G98A) with another CDR H3; as the light chain of m31; From the ML set (ml/mut); source: CHO cells, transiently transfected, purified (CaptureSelect CH1-XL)
In the case of B14, the “fold improvement in affinity over G98A” value in experiment [2] was above 1000 fold.

B15: anti-HER2 Fab HER20013 (Fab, V domains shown)
VH: QVQLVQSGAEVKKPGESLKISCKGSGYSFTSYWIAWVRQMPGKGLEYMGLIYPGDSDTKYSPSFQGQVTISVDKSVSTAYLQWSSLKPSDSAVYFCARHDVGYCSTSRCLTWPEYFQHWGQGTLVTVSS
VL: QSVLTQPPSVSAAPGQKVTISCSGSSSNIGNNYVSWYQQLPGTAPKLLIYGHTNRPAGVPDRFSGSKSGTSASLAISGFRSEDEADYYCASWDYTLSGWVFGGGTKLTVL
notes: as the heavy chain of m31 (G98A) with another CDR H3; as the light chain of m31; Top clone of the ML set (ml/mut); source: CHO cells, transiently transfected, purified (CaptureSelect CH1-XL)
As to B15, in experiment [2], the Kd was found to be 0.0607 nM.

B16: anti-HEL nanobody C1 (VHH)
VHH: QVQLQESGGGLVQAGGSLRLSCAASGSIFWAGYMGWYRQAPGKEREFVAAIDYGANTYYADSVKGRFTISRDNAKNTVYLQMNSLKPEDTAVYYCAVDRQPYYRRDNSHLYWGQGTQVTVSS
notes: as for B4
Take B16: the binding result in experiment [1] was “binds”.
